Data published in article PMC5360024, “The Alzheimer’s disease risk factors apolipoprotein E and TREM2 are linked in a receptor signaling pathway” (Journal of Neuroinflammation, 2017).

Tests used:
Conditions in all cases: both partners purified
Recombinant human TREM2 [1] = molecular target: T1, Recombinant human TREM2 (human, UniProt Q9NZC2 19-174); test: ELISA; competition: human TREM2 (40 nM) coated; 6 nM ApoE ε2 with 0-6 μM ApoE-mim149 or scrambled peptide, 1 h at RT; bound full-length ApoE detected with polyclonal anti-ApoE; one site-fit Ki
T1 construct: Triggering receptor expressed on myeloid cells 2 (TREM2), human, recombinant; As I recall, this catalogue item is the extracellular domain with a C-terminal His tag; also called triggering receptor expressed on myeloid cells 2; hTREM2; source: bought: Sino Biological Inc. (#11084-H08H)
T1 sequence (looked up): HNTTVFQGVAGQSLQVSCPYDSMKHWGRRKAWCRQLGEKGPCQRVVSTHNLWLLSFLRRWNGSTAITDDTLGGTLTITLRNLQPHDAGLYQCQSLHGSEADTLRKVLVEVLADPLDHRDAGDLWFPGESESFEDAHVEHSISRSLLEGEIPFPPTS

Recombinant human TREM2 [2] = molecular target: T1, Recombinant human TREM2; test: ELISA; competition: human TREM2 (40 nM) coated; 6 nM ApoE ε3 with 0-6 μM ApoE-mim149 or scrambled peptide, 1 h at RT; bound full-length ApoE detected with polyclonal anti-ApoE; one site-fit Ki
Recombinant human TREM2 [3] = molecular target: T1, Recombinant human TREM2; test: ELISA; competition: human TREM2 (40 nM) coated; 6 nM ApoE ε4 with 0-6 μM ApoE-mim149 or scrambled peptide, 1 h at RT; bound full-length ApoE detected with polyclonal anti-ApoE; one site-fit Ki

Ki (Recombinant human TREM2 [1]): 827 nM
Ki (Recombinant human TREM2 [2]): 475 nM
Ki (Recombinant human TREM2 [3]): 1540 nM
B1: ApoE-mimetic peptide corresponding to amino acids 130–149 (peptide)
peptide: Ac-TEELRVRLASHLRKLRKRLL-NH2
notes: also called ApoE-mim149; source: synthetic peptide, bought: GenScript
